Measurements published in patent US20260098090A1.

Molecular target: T1, IL-2Rbg on mouse splenocytes (NK cells, CD8+ T cells, Treg cells) (mouse) (UniProt P16297)
T1 sequence (looked up) 1: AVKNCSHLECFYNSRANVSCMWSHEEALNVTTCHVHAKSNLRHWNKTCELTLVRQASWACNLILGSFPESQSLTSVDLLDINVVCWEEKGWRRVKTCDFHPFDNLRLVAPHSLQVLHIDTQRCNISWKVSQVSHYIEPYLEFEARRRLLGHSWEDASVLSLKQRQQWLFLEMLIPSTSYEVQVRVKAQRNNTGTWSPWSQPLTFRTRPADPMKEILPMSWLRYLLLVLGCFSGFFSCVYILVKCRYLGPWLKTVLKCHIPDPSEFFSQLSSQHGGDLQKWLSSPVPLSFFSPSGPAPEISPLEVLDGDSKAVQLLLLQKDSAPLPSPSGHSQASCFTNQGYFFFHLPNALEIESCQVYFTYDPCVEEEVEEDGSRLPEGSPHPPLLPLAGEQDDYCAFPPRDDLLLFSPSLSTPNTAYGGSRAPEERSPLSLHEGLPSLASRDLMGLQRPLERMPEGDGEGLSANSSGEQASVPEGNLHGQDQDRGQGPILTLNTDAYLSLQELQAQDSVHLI
T1 sequence (looked up) 2: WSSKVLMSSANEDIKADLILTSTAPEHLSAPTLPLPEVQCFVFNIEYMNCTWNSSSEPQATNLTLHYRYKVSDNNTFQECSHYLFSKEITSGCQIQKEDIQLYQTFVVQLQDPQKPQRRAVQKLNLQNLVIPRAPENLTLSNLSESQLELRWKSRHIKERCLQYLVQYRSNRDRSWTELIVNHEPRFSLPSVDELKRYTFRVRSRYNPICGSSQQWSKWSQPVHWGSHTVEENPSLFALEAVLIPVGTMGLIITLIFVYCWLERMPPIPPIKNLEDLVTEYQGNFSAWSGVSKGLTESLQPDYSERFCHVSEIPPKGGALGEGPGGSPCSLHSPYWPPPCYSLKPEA
Assay: cell-based or functional assay

B1: CTRL-mIL2v2 (protein, part only; not given: control antibody chains and linker, not shown: small tags and cut ends)
heavy, part: APTSSSTSSSTAEAQQQQQQQQQQQQHLEQLLMDLQELLSRMENYRNLKLPEMLTAKFALPKQATELKDLQCLEDELGPLRHVLDLTQSKSFQLEDAENFISNIRVTVVKLKGSDNTFECQFDDESATVVDFLRRWIAFAQSIISTSPQ
pSTAT5 staining of murine splenocytes, EC50 on CD8+ T cells: 26 nM
pSTAT5 staining of murine splenocytes, EC50 on NK cells: 8.6 nM
pSTAT5 staining of murine splenocytes, EC50 on Treg cells: 42.5 nM
